The values that follow come from patent US10975360B2, “Process for the modification of alkanes, fatty acids and fatty alcohols” (priority 2016, dated 2021).

The format of data set [1] is cell-based, P. pastoris. As to the method:
(§1) Precultures of P. pastoris transformants were prepared in buffered complex glycerol media (BMGY). BMGY contained: 10 g/l yeast extract, 20 g/l peptone, 3.4 g/l yeast nitrogen base, 10 g/l ammonium sulfate, 100 mM potassium phosphate (pH 6), 0.4 mg/l biotin and 1% (v/v) glycerol. Erlenmeyer flasks (500 ml) containing 50 ml BMGY media were inoculated with single colonies of 24 h old YPD-agar cultures of P. pastoris KM71 mut^s3/CYP505E3 and incubated at 30° C. and 225 rpm for 24 h. The cultures were harvested using pre-weighed centrifuge tubes at 3000 g for 5 min and stored on ice until further use.
(§2) The main cultures for expression were prepared in buffered complex methanol media (BMMY) containing 10 g/l yeast extract, 20 g/l peptone, 3.4 g/l yeast nitrogen base, 10 g/l ammonium sulfate, 100 mM potassium phosphate (pH 6), 0.4 mg/l biotin and 0.5 or 1% (v/v) methanol. Harvested cells from precultures were resuspended in BMMY media to final concentration of 1 g WC per 40 ml (appx. 25 g/l). The resuspended cultures (100 ml) were transferred to 500 ml Erlenmeyer flasks and incubated at 25° C. and 225 rpm for 24 h. The cultures were then harvested at 3000 g for 5 min using pre-weighed centrifuge tubes.
(§3) Different transformants of Pichia pastoris KM71 harbouring the CYP505 genes for SEQ ID Nos 1 to 7 and 9 to 12 were grown and harvested as described above. The harvested cells were resuspended to give 1 g wet cell weight in 40 ml MOPS buffer (200 mM, 100 mM glucose, 100 mM glycerol, pH 8) and 1 ml aliquots of these cell suspensions were transferred to 40 ml amber vials. Dodecane, 1-dodecanol and 1-tetradecanol were added neat to these cell suspensions to give final concentrations of 200 mM in the case of the alcohols and 1 M in the case of dodecane while in the case of dodecanoic acid 20 μl of a 500 mM stock solution (in DMSO) was added to give a final concentration of 10 mM. Transformants harbouring the CYP505 genes for SEQ ID Nos 1 to 4 were tested for the biotransformation of 1-dodecanol, 1-tetradecanol, dodecanoic acid, tetradecanoic acid and dodecane, while those harbouring the CYP505 genes for SEQ ID Nos 5 to 7 and 9 to 12 were only tested for the biotransformation of 1-dodecanol and dodecanoic acid. The biotransformations were incubated at 25° C. and 225 rpm for 24 h. Extractions were performed using ethyl acetate (500 μl×2). The extracts were analyzed using GC/MS.

Data set [2] can be described thus: Whole cell biotransformation of dodecane by CYP505s expressed in P. pastoris. Particulars: whole cells of P. pastoris. The format is cell-based. As to the method:
as §1, §2, §3

The nature of data set [3]: Biotransformation of dodecanoic acid using CFE of E. coli, Tris-HCl buffer. Type of data set: biochemical. Particulars: 5 mmol/L substrate, CFE of E. coli, Tris-HCl, 24 h. The procedure: (§4) Expression of genes in E. coli was performed by using ZYP-5052 auto-induction medium (Table 1) with in the case of the CYP 1 mM 5-aminolevulinic acid and 0.05 mM FeCl3 added. The CYP505E3 culture was cultivated using baffled flasks and incubated at 20° C. and 180 rpm for 24 h, while the GDH, and HLADH expressing cultures were all cultivated at 25° C. and 200 rpm for 24 h. Cultures were harvested through centrifugation (6 000×g, 10 min) and 1 g (wet weight) resuspended in 2 ml, 5 ml or 10 ml Tris-HCl, Phosphate or MOPS buffer, as indicated, (pH 8, 200 mM) containing 100 mM of glucose and glycerol. CFEs were obtained by a single passage of the suspended cells through a One Shot Cell Disrupter (Constant Systems) at 207 MPa. The soluble fraction was separated from unbroken cells by centrifugation (20 000×g, 20 min).
The biotransformation reaction mixture (BRM) consisted of CYP and GDH CFE suspensions prepared from cells in Tris-HCl buffers (1 g wet weight in 2 ml buffer) mixed in a 1:1 ratio with 0.1 mM NADPH added. Dodecanoic acid, tetradecanoic acid, hexadecanoic acid, 1-tetradecanol and 1-hexadecanol (20 μl of a 255 mM stock solution in DMSO) were added to 40 ml amber glass vials containing 1 ml BRM to give final substrate concentrations of 5 mmol·LBRM^−1. These vials were placed on an orbital shaker at 20° C., 200 rpm, oscillation amplitude 26 mm. Vials were removed after 24 h for extraction. Biotransformations were stopped by adding 170 ul of 0.5M HCl, extracted with 2×500 μl EtOAc and subjected to GC-MS analysis. A sample of δ-dodecalactone in ethyl acetate (0.1 mM) was also methylated with TMSH and subjected to GC-MS analysis.

Data set [4] can be described thus: Biotransformation of 1-tetradecanol using CFE of E. coli, Tris-HCl buffer. The format is biochemical. Particulars: 5 mmol/L substrate, CFE of E. coli, Tris-HCl, 24 h. As to the method: as §4
(§5) The biotransformation reaction mixture (BRM) consisted of CYP and GDH CFE suspensions prepared from cells in Tris-HCl buffers (1 g wet weight in 2 ml buffer) mixed in a 1:1 ratio with 0.1 mM NADPH added. Dodecanoic acid, tetradecanoic acid, hexadecanoic acid, 1-tetradecanol and 1-hexadecanol (20 μl of a 255 mM stock solution in DMSO) were added to 40 ml amber glass vials containing 1 ml BRM to give final substrate concentrations of 5 mmol·LBRM^−1. These vials were placed on an orbital shaker at 20° C., 200 rpm, oscillation amplitude 26 mm. […]

Data set [5] can be described thus: Biotransformation of hexadecane using CFE of E. coli expressing CYP505E3. The format is biochemical. The procedure:
as §4
Biotransformations of dodecane, tetradecane and hexadecane were carried using only CYP505E3 containing CFE prepared from an E. coli cell suspension (1 g wet weight in 10 ml buffer) in MOPS buffer (200 mM, pH 8) containing glucose and glycerol (100 mM each) as well as 0.1 mM NADPH. Alkane substrates (250 μL) were added to 1 mL BRM in 40 ml amber glass vials. These vials were placed on an orbital shaker at 20° C., 200 rpm, oscillation amplitude 26 mm and incubated for 24 h.

Data set [6] can be described thus: Biotransformation of 1-hexadecanol using CFE of E. coli, Tris-HCl buffer. The format is biochemical. Particulars: 5 mmol/L substrate, 24 h. The procedure:
as §4, §5

The nature of data set [7]: Biotransformation of C12 fatty acid using CFE of E. coli expressing CYP505E3 in different buffers. Type of data set: biochemical. The procedure: as §4
The biotransformation reaction mixture (BRM) consisted of CYP and GDH CFE suspensions prepared from cells in Tris-HCl, phosphate and MOPS buffers (1 g wet weight in 5 ml buffer) mixed in a 1:1 ratio with 0.1 mM NADPH added. The final CYP concentrations were 1.1, 1.3 and 1.5 μM in respectively the Tris-HCl, phosphate and MOPS buffers. Dodecanoic acid (20 μl of 255 or 510 mM fatty acid stock solution in DMSO) was added to 40 ml amber glass vials containing 1 ml BRM to give final substrate concentrations of 5 and 10 mmol·LBRM^−1. […]

The conditions of data set [8]: whole cell biotransformations, E. coli; cited from earlier work.

B1: CYP505E3: self-sufficient cytochrome P450 monooxygenase from Aspergillus terreus, SEQ ID No 1 (protein, listed as Aspergillus terreus)
chain: MIKETEQIPGPRPLPVVGNLFDMDLEHGLECLIRLADDFGPLFQITINGEKQIFATSQALVDELCDESRFHKAVMGGLEKLRMLASDGLFTAYHGERGWGIAHRILVPAFGPLRIRNMFEEMNDVAQQLCLKWARQGSSTSINITDDFTRLTLDTIALCTMNFRLNSFYNNETMHPFVKSMLYVLRESDIQSMLPGIANCIRVKARSRMSKHIQLMRNMARGIIQERRDQAEPVDDLLNTLLNGRDPVTGEGMSDDLIINNVITFLIAGHETTSGLLSFTFYYLLQNPHILERAQNEVDEVTGGERITVQHLGRLTYIDAILKESLRLMPTAPAFTVTPKKPEVLGGAWAIDAGQAVNVLLPVCLRDRSVFGPDADEFRPERMLEENFSKLPPNSWKPFGNGERSCIGRAFAWQEAQLVVAMVLQTFDLVPDDPSYKLRIKETLTIKPDGFRVRATLRRGQSATGLSQGSMSASGATSSVASPGPPAATGAQSNPAGGQRISFFYGSNSGTCKALAHRLASSLMGRGFTEQKLAALDTVVGNLPTDQPVIIVTTSYDGRPTDDAEEFVRWLESKRPVLQGVSYAVFGCGHHDWAKTFYRIPILIDDLMHKAGATRLTALGTANAAVSDLFSDLELWEETNLLPALREAFPPSNSSDVESSEPHQLQICVSKPRRVDMHRGLVEAKVTAVRTLTSPDSPEKRHVEFHVQGDTTWRPGDHVNILPVNPLSTVSRVLAYFQLAPDHSITVNSFNTQGLPSATPVSATELFSSFVELSQPATRKNLKALAMAAESKTDEQELIRLHDSYDALVRDKRVSVLDILERFPSISLPIGIFISMLPPLRLRTYSLSMAPSFKPSHGSLTFSVINEPAWSGNGQYLGVGSNYLASLTPGSLLYLSPRPAKDAFHLPADQFNTPIIMICAGSGLAPFMGFIQERMTWLKQGRPLAKGLLFFGCRGPHLDDLYYEELSEFEDAGVVEVHRAYSRAPDDVRAKGCRHVQHRLVTEAEAVRDHWGRNAIVYVCGSSNMARGVQTVLEEILGTLPPERYVAEIF
In the case of B1, in data set [1], the “products produced from tetradecanoic acid (GC-MS)” value was “only 7-hydroxy tetradecanoic acid”. Moreover, the “products produced from dodecane (GC-MS)” value in data set [2] (1 M dodecane, 24 h) is 5-dodecanol. The “ω-7 hydroxylase activity C12alk” value in data set [2] (C12 alkane, GC-MS peak height) is listed as “+++ (+++ 1 million < RA < 10 million)”. Besides, the “products identified from dodecanoic acid (GC-MS, methylated samples)” value in data set [3] was “δ-dodecalactone and the methyl ester of 5-hydroxy dodecanoic acid”. In addition, the “products detected from tetradecanol (GC-MS)” value in data set [4] was 1,7-tetradecane diol and 1,8-tetradecane diol. Further, the “ω-7 hydroxylase activity C16alk” value in data set [5] (C16 alkane, GC-MS peak height) is on record as “+ (+ − 0.01 million < RA < 0.1 million)”. In data set [5] (MOPS buffer, 24 h), the “product from hexadecane (GC-MS)” value is 8-hexadecanol. Further, the “products detected from hexadecanol (GC-MS)” value in data set [6] is “did not allow detection of any products”. The conversion of substrate result in data set [7] (5 mM dodecanoic acid, within 24 h, all buffers) is “almost completely converted”. In data set [7] (dodecanoic acid, CFE, Tris-HCl, phosphate or MOPS buffer pH 8), the “δ-dodecalactone and 5-OH 12FAME as share of the total products” value is 30-35%. In addition, in data set [8], the “activity towards alkanes and alkylbenzens” value is recorded as “no detectable activity”.
